This note sets out measurements from patent publication US20210275545A1 (YEDA RESEARCH AND DEVELOPMENT, published 2021).

Assay [1] addresses T1, GR-Gluc2 (full-length glucocorticoid receptor fused at its carboxyl terminus to Gluc2) (human, UniProt P04150 1-777).
T1 construct: domain: full length;range 94-169; Expressed in HEK-293/HEK-293T cells by transfection; also called Gluc2-GR; not shown: Gaussia luciferase (Gluc), carboxyl-terminal fragment Gluc2, amino acids 94-169
T1 sequence (looked up): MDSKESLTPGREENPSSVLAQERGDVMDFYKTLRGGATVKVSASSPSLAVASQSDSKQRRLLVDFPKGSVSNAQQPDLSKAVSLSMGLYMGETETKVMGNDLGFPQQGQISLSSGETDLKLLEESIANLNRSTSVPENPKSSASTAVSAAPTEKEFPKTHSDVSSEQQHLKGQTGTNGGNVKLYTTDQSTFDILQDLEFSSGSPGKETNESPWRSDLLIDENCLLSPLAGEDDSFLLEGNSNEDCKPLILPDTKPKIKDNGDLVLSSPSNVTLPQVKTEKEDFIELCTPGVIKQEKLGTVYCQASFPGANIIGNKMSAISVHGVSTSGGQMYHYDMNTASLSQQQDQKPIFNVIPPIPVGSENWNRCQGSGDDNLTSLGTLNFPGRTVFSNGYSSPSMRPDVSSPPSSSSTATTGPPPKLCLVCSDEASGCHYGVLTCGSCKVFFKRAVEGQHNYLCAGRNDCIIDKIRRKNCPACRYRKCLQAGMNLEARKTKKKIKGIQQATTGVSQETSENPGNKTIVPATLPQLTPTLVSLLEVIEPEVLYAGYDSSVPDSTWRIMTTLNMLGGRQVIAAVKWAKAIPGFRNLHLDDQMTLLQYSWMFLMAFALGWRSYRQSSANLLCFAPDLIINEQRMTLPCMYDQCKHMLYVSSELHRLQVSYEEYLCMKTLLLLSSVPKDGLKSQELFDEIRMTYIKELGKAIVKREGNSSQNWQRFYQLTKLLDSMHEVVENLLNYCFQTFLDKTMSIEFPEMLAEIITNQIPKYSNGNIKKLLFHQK
Put plainly: PCA time course after DEX 1 µM in HEK-293T cells (FIG. 2A). The procedure:
(A) HEK-293T cells (6×10³) were seeded in 96-well plates. […] Luminescence of vehicle-treated cells was used for normalization. […] Images were processed using the Zeiss ZEN2011 software. […] Bars, 20 μm.

Assay [2] deals with T2, MR-Gluc2 (mineralocorticoid receptor fused to Gluc2) (UniProt P08235 1-984).
T2 construct: not shown: Gaussia luciferase (Gluc), carboxyl-terminal fragment Gluc2, amino acids 94-169
T2 sequence (looked up): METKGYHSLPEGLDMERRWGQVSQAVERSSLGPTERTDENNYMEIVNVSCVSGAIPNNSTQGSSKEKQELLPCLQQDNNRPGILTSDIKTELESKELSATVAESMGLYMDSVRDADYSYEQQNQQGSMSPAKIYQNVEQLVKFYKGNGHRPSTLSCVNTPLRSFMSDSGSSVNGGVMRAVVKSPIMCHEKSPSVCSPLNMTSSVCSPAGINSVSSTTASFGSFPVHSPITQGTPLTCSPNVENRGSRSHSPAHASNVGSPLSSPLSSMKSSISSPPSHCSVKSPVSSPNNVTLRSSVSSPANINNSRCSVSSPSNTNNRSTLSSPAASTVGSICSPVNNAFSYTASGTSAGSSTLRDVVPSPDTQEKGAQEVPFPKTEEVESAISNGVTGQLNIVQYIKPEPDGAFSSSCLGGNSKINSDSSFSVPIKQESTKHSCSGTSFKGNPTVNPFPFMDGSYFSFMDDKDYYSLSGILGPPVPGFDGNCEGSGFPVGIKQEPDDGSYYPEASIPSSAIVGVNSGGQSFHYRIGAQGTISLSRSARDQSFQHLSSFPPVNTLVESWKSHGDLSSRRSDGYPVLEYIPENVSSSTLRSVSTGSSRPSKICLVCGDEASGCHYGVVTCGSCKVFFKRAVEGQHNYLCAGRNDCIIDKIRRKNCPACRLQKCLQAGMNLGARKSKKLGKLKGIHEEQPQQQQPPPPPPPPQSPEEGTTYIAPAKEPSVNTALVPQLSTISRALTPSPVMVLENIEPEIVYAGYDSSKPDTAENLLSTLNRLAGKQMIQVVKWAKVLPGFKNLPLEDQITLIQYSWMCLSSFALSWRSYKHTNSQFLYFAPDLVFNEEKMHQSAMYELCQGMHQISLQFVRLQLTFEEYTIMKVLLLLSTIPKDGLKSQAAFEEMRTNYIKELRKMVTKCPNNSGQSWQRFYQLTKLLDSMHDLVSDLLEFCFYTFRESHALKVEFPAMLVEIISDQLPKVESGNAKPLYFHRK
Put plainly: PCA in HEK-293T cells, DEX 1 µM 60 min (FIG. 8B). The procedure: (§1) (A) HEK-293T cells (6×10³) were seeded in 96-well plates. […] (B and C) HEK-293T cells (6×10³) were seeded in 96-well plates. […] Cells were then lysed and luminescence was determined.

For assay [3], the target named is T3, ERα-Gluc2 (estrogen receptor alpha fused to Gluc2) (UniProt P03372 1-595).
T3 construct: not shown: Gaussia luciferase (Gluc), carboxyl-terminal fragment Gluc2, amino acids 94-169
T3 sequence (looked up): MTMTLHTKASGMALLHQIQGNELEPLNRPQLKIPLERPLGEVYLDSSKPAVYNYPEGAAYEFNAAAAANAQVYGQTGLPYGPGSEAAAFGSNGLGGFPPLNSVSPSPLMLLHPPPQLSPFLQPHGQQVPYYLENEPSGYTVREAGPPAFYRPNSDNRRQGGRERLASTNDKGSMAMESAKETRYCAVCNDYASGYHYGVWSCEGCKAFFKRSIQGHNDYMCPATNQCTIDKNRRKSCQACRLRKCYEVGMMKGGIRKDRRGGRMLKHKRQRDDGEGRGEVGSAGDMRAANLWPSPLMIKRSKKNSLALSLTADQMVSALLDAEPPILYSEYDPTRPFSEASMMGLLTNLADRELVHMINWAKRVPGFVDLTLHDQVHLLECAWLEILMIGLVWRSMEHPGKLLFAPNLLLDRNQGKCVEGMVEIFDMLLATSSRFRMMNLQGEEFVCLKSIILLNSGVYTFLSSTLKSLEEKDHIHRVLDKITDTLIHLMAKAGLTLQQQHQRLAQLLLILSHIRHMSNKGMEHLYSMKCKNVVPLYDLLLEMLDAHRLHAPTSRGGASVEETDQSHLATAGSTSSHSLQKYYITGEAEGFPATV
Put plainly: PCA in HEK-293T cells, estradiol 10 nM 60 min (FIG. 8C). Here is the method:
as §1

In assay [4] the target is T1, GR-Gluc2 (full-length glucocorticoid …). Nature of the assay: PCA in HEK-293T cells, DEX 1 µM or estradiol 10 nM 60 min (FIG. 8D). The procedure:
as §1

Assay [5] has the same target. Nature of the assay: PCA in HEK-293T cells, DEX 1 µM with or without RU486 1 µM (FIG. 1C). The source says: EB, empty beads; C, solvent control. Images shown are representative of three biological replicates.
The resulting luminescence was normalized to the signal associated with cells treated with vehicle only.

In assay [6] the target is T3, ERα-Gluc2 (estrogen receptor alpha …). Nature of the assay: PCA in HEK-293T cells, vehicle against estradiol 10 nM 60 min (FIG. 8C). The procedure:
as §1

B1: Gluc1-ERG (other, UniProt P11308-3 1-486, looked up)
chain: MIQTVPDPAAHIKEALSVVSEDQSLFECAYGTPHLAKTEMTASSSSDYGQTSKMSPRVPQQDWLSQPPARVTIKMECNPSQVNGSRNSPDECSVAKGGKMVGSPDTVGMNYGSYMEEKHMPPPNMTTNERRVIVPADPTLWSTDHVRQWLEWAVKEYGLPDVNILLFQNIDGKELCKMTKDDFQRLTPSYNADILLSHLHYLRETPLPHLTSDDVDKALQNSPRLMHARNTGGAAFIFPNTSVYPEATQRITTRPDLPYEPPRRSAWTGHGHPTPQSKAAQPSPSTVPKTEDQRPQLDPYQILGPTSSRLANPGSGQIQLWQFLLELLSDSSNSSCITWEGTNGEFKMTDPDEVARRWGERKSKPNMNYDKLSRALRYYYDKNIMTKVHGKRYAYKFDFHGIAQALQPHPPESSLYKYPSDLPYMGSYHAHPQKMNFVAPHPPALPVTSSSFFAAPNPYWNSPTGGIYPNTRLPTSHMPSHLGTYY
notes: not shown: Gaussia luciferase (Gluc), amino-terminal fragment Gluc1, amino acids 1-93
Turning to B1, the binding result is recorded as “binds” in assay [1], “binds” in assay [2] and “no binding” in assay [3].

B2: Gluc1-FLI1 (full-length FLI1 fused downstream of Gluc1) (other, UniProt Q01543 1-452, looked up)
chain: MDGTIKEALSVVSDDQSLFDSAYGAAAHLPKADMTASGSPDYGQPHKINPLPPQQEWINQPVRVNVKREYDHMNGSRESPVDCSVSKCSKLVGGGESNPMNYNSYMDEKNGPPPPNMTTNERRVIVPADPTLWTQEHVRQWLEWAIKEYSLMEIDTSFFQNMDGKELCKMNKEDFLRATTLYNTEVLLSHLSYLRESSLLAYNTTSHTDQSSRLSVKEDPSYDSVRRGAWGNNMNSGLNKSPPLGGAQTISKNTEQRPQPDPYQILGPTSSRLANPGSGQIQLWQFLLELLSDSANASCITWEGTNGEFKMTDPDEVARRWGERKSKPNMNYDKLSRALRYYYDKNIMTKVHGKRYAYKFDFHGIAQALQPHPTESSMYKYPSDISYMPSYHAHQQKVNFVPPHPSSMPVTSSSFFGAASQYWTSPTGGIYPNPNVPRHPNTHVPSHLGSYY
notes: range 1-93;domain: full length; also called FiI1; not shown: Gaussia luciferase (Gluc), amino-terminal fragment Gluc1, amino acids 1-93
With B2, in assay [3], the binding result was “no binding”.

B3: ERα-Gluc1 (estrogen receptor alpha fused to Gluc1) (receptor, UniProt P03372 1-595, looked up)
chain: T3 sequence (looked up)
notes: as for B1
As for B3, the binding result in assay [4] was “binds”.

B4: Gluc1-ETV4 (other, UniProt P43268 1-484, looked up)
chain: MERRMKAGYLDQQVPYTFSSKSPGNGSLREALIGPLGKLMDPGSLPPLDSEDLFQDLSHFQETWLAEAQVPDSDEQFVPDFHSENLAFHSPTTRIKKEPQSPRTDPALSCSRKPPLPYHHGEQCLYSSAYDPPRQIAIKSPAPGALGQSPLQPFPRAEQRNFLRSSGTSQPHPGHGYLGEHSSVFQQPLDICHSFTSQGGGREPLPAPYQHQLSEPCPPYPQQSFKQEYHDPLYEQAGQPAVDQGGVNGHRYPGAGVVIKQEQTDFAYDSDVTGCASMYLHTEGFSGPSPGDGAMGYGYEKPLRPFPDDVCVVPEKFEGDIKQEGVGAFREGPPYQRRGALQLWQFLVALLDDPTNAHFIAWTGRGMEFKLIEPEEVARLWGIQKNRPAMNYDKLSRSLRYYYEKGIMQKVAGERYVYKFVCEPEALFSLAFPDNQRPALKAEFDRPVSEEDTVPLSHLDESPAYLPELAGPAQPFGPKGGYSY
notes: as for B1
Regarding B4, the binding result in assay [5] is “binds”; in assay [3], “no binding”.

B5: Gluc1-ELF3 (other, UniProt P78545 1-371, looked up)
chain: MAATCEISNIFSNYFSAMYSSEDSTLASVPPAATFGADDLVLTLSNPQMSLEGTEKASWLGEQPQFWSKTQVLDWISYQVEKNKYDASAIDFSRCDMDGATLCNCALEELRLVFGPLGDQLHAQLRDLTSSSSDELSWIIELLEKDGMAFQEALDPGPFDQGSPFAQELLDDGQQASPYHPGSCGAGAPSPGSSDVSTAGTGASRSSHSSDSGGSDVDLDPTDGKLFPSDGFRDCKKGDPKHGKRKRGRPRKLSKEYWDCLEGKKSKHAPRGTHLWEFIRDILIHPELNEGLMKWENRHEGVFKFLRSEAVAQLWGQKKKNSNMTYEKLSRAMRYYYKREILERVDGRRLVYKFGKNSSGWKEEEVLQSRN
notes: as for B1
Turning to B5, the binding result in assay [6] is “binds”.

B6: Gluc1-ETV2 (other, UniProt O00321 1-342, looked up)
chain: MDLWNWDEASPQEVPPGNKLAGLEGAKLGFCFPDLALQGDTPTATAETCWKGTSSSLASFPQLDWGSALLHPEVPWGAEPDSQALPWSGDWTDMACTAWDSWSGASQTLGPAPLGPGPIPAAGSEGAAGQNCVPVAGEATSWSRAQAAGSNTSWDCSVGPDGDTYWGSGLGGEPRTDCTISWGGPAGPDCTTSWNPGLHAGGTTSLKRYQSSALTVCSEPSPQSDRASLARCPKTNHRGPIQLWQFLLELLHDGARSSCIRWTGNSREFQLCDPKEVARLWGERKRKPGMNYEKLSRGLRYYYRRDIVRKSGGRKYTYRFGGRVPSLAYPDCAGGGRGAETQ
notes: as for B1
On to B6, for which the binding result was “binds” in assay [2] and “no binding” in assay [3].
